The results in this text go back to PMC7272653, “Human aminolevulinate synthase structure reveals a eukaryotic-specific autoinhibitory loop regulating substrate binding and product release” (Nature Communications, 2020).

The series deals with the molecule itself. Description: SEC + other: SAXS; in solution; SAXS coupled to a Shodex KW403-4F size exclusion column; 300 mM NaCl, 25 mM Hepes 7.5, 1 mM TCEP, 2% glycerol, 1% sucrose, 20 °C. For orientation: Size exclusion chromatography separates by hydrodynamic size, large species first.

B1: hsALAS2_(ΔN142) (human erythroid-specific 5′-aminolevulinate synthase, aa 143–587) (enzyme, UniProt P22557 143-587, looked up)
chain: FSYDQFFRDKIMEKKQDHTYRVFKTVNRWADAYPFAQHFSEASVASKDVSVWCSNDYLGMSRHPQVLQATQETLQRHGAGAGGTRNISGTSKFHVELEQELAELHQKDSALLFSSCFVANDSTLFTLAKILPGCEIYSDAGNHASMIQGIRNSGAAKFVFRHNDPDHLKKLLEKSNPKIPKIVAFETVHSMDGAICPLEELCDVSHQYGALTFVDEVHAVGLYGSRGAGIGERDGIMHKIDIISGTLGKAFGCVGGYIASTRDLVDMVRSYAAGFIFTTSLPPMVLSGALESVRLLKGEEGQALRRAHQRNVKHMRQLLMDRGLPVIPCPSHIIPIRVGNAALNSKLCDLLLSKHGIYVQAINYPTVPRGEELLRLAPSPHHSPQMMEDFVEKLLLAWTAVGLPLQDVSVAACNFCRRPVHFELMSEWERSYFGNMGPQYVTTYA
notes: human ALAS2 (5′-aminolevulinate synthase, erythroid-specific), aa 143–587: catalytic core and Ct-extension; Before crystallisation it was made non-covalent with hydroxylamine; The His6 tag is TEV-cleavable and was removed 'where applicable'; also called hsALAS2_(ΔN142) WT; source: baculovirus-infected Sf9 insect cells, purified (Ni-NTA, Superdex 200)
Take B1: the stoichiometry N (in general, the number of molecules, sites or subunits per partner or assembly) was 2.

B2: hsALAS2_(ΔN142ΔC545) (catalytic domain alone, aa 143–545) (domain or fragment, human, UniProt P22557 143-545, looked up)
chain: FSYDQFFRDKIMEKKQDHTYRVFKTVNRWADAYPFAQHFSEASVASKDVSVWCSNDYLGMSRHPQVLQATQETLQRHGAGAGGTRNISGTSKFHVELEQELAELHQKDSALLFSSCFVANDSTLFTLAKILPGCEIYSDAGNHASMIQGIRNSGAAKFVFRHNDPDHLKKLLEKSNPKIPKIVAFETVHSMDGAICPLEELCDVSHQYGALTFVDEVHAVGLYGSRGAGIGERDGIMHKIDIISGTLGKAFGCVGGYIASTRDLVDMVRSYAAGFIFTTSLPPMVLSGALESVRLLKGEEGQALRRAHQRNVKHMRQLLMDRGLPVIPCPSHIIPIRVGNAALNSKLCDLLLSKHGIYVQAINYPTVPRGEELLRLAPSPHHSPQMMEDFVEKLLLAWTAVGL
notes: human ALAS2, catalytic domain alone, aa 143–545 (Ct-extension omitted); also called hsALAS2_(ΔN142ΔC545) WT; source: constructs cloned into pFB-LIC-Bse (Sf9) and pNIC28-Bsa4; purified (Ni-NTA, Superdex 200)
Consider B2, for which the “stoichiometry N” value was found to be 2.
